Data from the nanobody polyreactivity screen of Harvey et al. (2022).

Assay: yeast display, Sf9 membrane polyspecificity reagent, FACS + sequencing; frameworks hold sequencing errors
In short: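 Galactose-induced (36–48 hours) yeast carrying a synthetic nanobody display library were exposed to 10% biotinylated, detergent-solubilized Sf9 membrane reagent at 4 °C for 1 hour. FACS followed streptavidin microbead enrichment, using low and high (top ~1%) gates for expression (anti-HA) and reagent binding (streptavidin). Colony PCR, MiSeq 2 × 250 sequencing and CDR-length filtering followed. Labels for polyreactivity reflect the gate of origin.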

Sequence	polyreactivity (PSR sort gate)
QVQLVESGGCLVQAGGSLRLRCAASGRIFLRYDMGWYRQAPGKERELVAAISSGASTYYADSVKGRFTISRDNAKNTVYLQMNSLKPEDTAVFYCAVDRPYYYGYRMDYWGQGSQVTVSS	low polyreactivity
QVQLVESGGCLVQAGGSLRLRCAASGRTLRCYAMGWYRQAPGKEREFVAAISRGTVGTYYADSVKGRFTISRDNAKNTVYLQMNSLKPEDTAVYYCAADRFAYFTNLRLGYYSWGQGTQVTVSS	low polyreactivity
QVQLVESGGCLVQAGGSLRLRCAASGSTFDDNVKGWYRPAPRKDRELVAAISSSGGSTYYADSVKGRFTISRDNAKNTVYLQMNSLKPEDTAVYYCNAVYFGLWGYYSRRSYNYWGQGTQVNVSS	low polyreactivity
QVQLVESGGCLVQAGGSLRLSCAASGFIFRRYALGWNRQAPGKERELVAAISSSGGRTTYADSVKGRFTISRDNAKNTVYLQMNSLKPEDTAVYYCNADLCPGNHDGYWGQGTQVTVSS	low polyreactivity
QVQLVESGGCLVQAGGSLRLSCAASGFIFSRNAIGWYRQAHGKERELVAAISLRGGSTYYADSVKGRFTISRDYAKNTVYLQMNSLKPEDTAVYYCAAPLFSGYDYWVQGTQVTVSS	low polyreactivity
QVQLVESGGCLVQAGGSLRLSCAASGFIFSYYALGWYRQAPGKERELVAAITWDGGSTYYADSVKGRFTISRDNAKNSVYLQMNSLKPEDTAVYYCNAYYYYRRPLEGGYWGQGTQVTVSS	low polyreactivity
QVQLVESGGCLVQAGGSLRLSCAASGFTFGPYDMGWYRQAPGKERELVAVIIGGDSTNYADSVKGRFTISRDNAKNTVYLQLNSLKPEVTAVYYCAADYIDRVGWMDYWGQGTQVTVSS	low polyreactivity
QVQLVESGGCLVQAGGSLRLSCAASGFTFSYYAMGWYRQAPGKERELVAAISSSSGTTYYADSVKRRFTISRDNANNTVYLQMNSLKPEDTAVYYCVVIARDGYDYWGQGTQVTVSS	high polyreactivity
QVQLVESGGCLVQAGGSLRLSCAASGFTLTAYAMGWYRQAPGKEREFVAAISTSGTRTYYADSVKGRFTISRDNAKITVYLQMYSLKPDDTAVYYCAARYSGYQYWKFNYWGQGTQVTVSS	high polyreactivity
QVQLVESGGCLVQAGGSLRLSCAASGGTFVTYAMGWYRQAPGKERELVAAITTGGSTYYADSVKGRFTISRDNAKNTVYLQMNSLKPEDSAVYYCAAVYTGSGKRYYKGYYWGQGTQVTVSS	low polyreactivity
QVQLVESGGCLVQAGGSLRLSCAASGIIFYQNSMGWYRQAPGKERELVAAISRSGGTTYYADSVKGRFTISRDNAKNTVYLLMNSVNPEVTAVYYCAAVGTGSGYYYWGQGTQVTVSS	high polyreactivity
QVQLVESGGCLVQAGGSLRLSCAASGITLRYYAMGWYRQAPGKERELDAAISSGGRTYYADSVKGRFTISRDNATKTVYLPLNSLKPEETAVYYCNVVWSVTYDYWGHGTQVTVSS	high polyreactivity
QVQLVESGGCLVQAGGSLRLSCAASGLTFKWNTMGWYRQAPGKESELVAAISWRVVSTYYADSVKGRFTISRDNAKNTVYLQMNSLKPEDTAVYYDYWGQGTQVTVSS	low polyreactivity
QVQLVESGGCLVQAGGSLRLSCAASGLTFSWYAMGWYRQAPGKERELVAAISTRGGRTYYADSVKGRFTISRDNAKNTVYLQMNSLKPEDTAVYYCAAGVSYRYLWLVDYWGQGTQVTVSS	high polyreactivity
QVQLVESGGCLVQAGGSLRLSCAASGNTFSTYTMGWYRQAPGKERELVAALTRSRGRTYYADSVKGRFTISRDTAKNTVYLQMNSLKPEDTAVYYCNAYTADLDDYWGQGNQVTVSS	high polyreactivity
QVQLVESGGCLVQAGGSLRLSCAASGRIFDHYAMGWYRQAPGKERELVAAITRSGGITYYADSVKGRFTISRDNAKNTVYLQMNSLKPDDTAVFYCAAYLKGNYYLGIARYVLYYWGQGTQVTVSS	low polyreactivity
QVQLVESGGCLVQAGGSLRLSCAASGRIFFYYTLGWYRQAPGKERELVAAINSTGSTNYADSVKGRFTISRDNAKNTVYLQMKSLKPEDTAVYYCNAGTRYIFLYPPFLGAAFDYWGQGTQVTVSS	low polyreactivity
QVQLVESGGCLVQAGGSLRLSCAASGRIFQGYAMAWYRQAPGKEREFVAAITLSGGSTYYADSVKGRFTISRDNAKNTVYLQMNSLKPEDTAVYYCNAYYPDEPSLDDYWGQGTQVTVSS	low polyreactivity
QVQLVESGGCLVQAGGSLRLSCAASGRIFVPNAMGWYRQAPGKERELVAAINWGGGSTYYADSVKGRFTISRDNAKNTVYLQMNSLKPEDTAVYYCAADHPYTMGVLPNQQFDYWGQGTQVTVSS	low polyreactivity
QVQLVESGGCLVQAGGSLRLSCAASGRSFDKYTMGWYRQAPGKERELVAAISTRGGSTYYADSVKGRFTISRDNAKNTVYLQMNSLKPEDTAVYYCATVPRPKAYDYWGQGTQVTVSS	high polyreactivity
QVQLVESGGCLVQAGGSLRLSCAASGRTFRSNAMGWYRQAPGKERELVAAITIGGSTTYADSVKGRFTISRDNAKNTVYLQMISLKREDSAVYYCKARDYYPYDYWGKGTQVTVSS	high polyreactivity
QVQLVESGGCLVQAGGSLRLSCAASGRTFRYYAMGWYRQAPGRERELVAAIRRAGSTTYADSVKGRFTISRDNAKNTVYLQMNSLKPEDTAVYYCIARRYGYGYALDYWGQGTQVTVSS	high polyreactivity
QVQLVESGGCLVQAGGSLRLSCAASGRTFRYYAMGWYRQAPGTERELVATITGSGGSTYYADSVKGRFTISRDNAKNTVYLQMTSLKPEDTAVYYCNARKVRYPYRWYDYWGQGTQVTVSS	high polyreactivity
QVQLVESGGCLVQAGGSLRLSCAASGSIFAAYTMGWYRQAPGKERELVAAISVSTVSTYYADSVKGRFTISRDNAKNTVYLQMNSLKPEDTAVYYCNADATDSYPEKDEHDSWGQGTQVTVSS	low polyreactivity
QVQLVESGGCLVQAGGSLRLSCAASGSIFGYYAMGWYRQAPGKERELVAAISYSGGSTYYADSVKGRFTISRDTAKNTVYLQMNSLKPEDTAVYYCNAVTSWAYWRGPRYDYWGQGTQVTVSS	high polyreactivity
QVQLVESGGCLVQAGGSLRLSCAASGSIFHPYGMGWYRQAPGKERELVAAITSSGGDTYYADSVKGRFTISRDNAKNTVYLQMNSLKPEDTAVYYCAATGLPGYYAYDYWGQGTQVTVSS	low polyreactivity
QVQLVESGGCLVQAGGSLRLSCAASGSIFIWYAMGWYRQAPGKERELVASITYSAGRTYYADSVKGRFTISRDNAKNTVYLQMNSLKPEDTAVYYCAADSPYVYTLDSYGEGDYWGQGTQVTVSS	low polyreactivity
QVQLVESGGCLVQAGGSLRLSCAASGSIFKGYAMGWSRQAPGKERELVAAITIDGSTYYADSVKGRFTISRDNAKNTVYLQMNSLKPEDTAVYYCAAVYLWYGSWPLHFAAYDYWGQGTQVTVSS	low polyreactivity
QVQLVESGGCLVQAGGSLRLSCAASGSIFLFNAMGWYRQAPGKDRELVATISWSGVVLRTYADSVKGRFTISRDNAKNTVYLQMNSLKPEDTAVYNCAARDLAFFTEYGYWGQGTQVSVSS	high polyreactivity
QVQLVESGGCLVQAGGSLRLSCAASGSIFSKNTMGWSRQAPGKDRELVATISIGGGSTYYADSVKGRFTISRDNAKNTVYLQMNSLKPADSAVYYCNASLRRPFSLYYYWGQGTQVTVSS	high polyreactivity
